Measured values from the supplement of paper PMC5998384.

Tests used:
HeLa Kyoto [1] = assay: solubility change mitosis vs G1/S (difference of NP-40 vs SDS log2 ratios) (log2 ratio difference); higher = more soluble in mitosis
HeLa Kyoto [2] = assay: solubility in G1/S (NP-40 vs SDS abundance) (log2 ratio); higher = more soluble; settings: cell cycle stage: G1/S
HeLa Kyoto [3] = assay: melting temperature (median over replicates), in situ; higher = more thermally stable
HeLa Kyoto [4] = assay: thermal stability score vs G1/S (z-score of summed log2 fold changes over temperatures); higher = more thermally stable than in G1/S
[5] = cell cycle stage: early G1 (4.5 h after nocodazole release)
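For melting temperature (median over replicates), in situ in this document: HeLa Kyoto cells synchronized by double thymidine or nocodazole block, proteins quantified by TMT10plex mass spectrometry, three independent biological replicates.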
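For solubility change mitosis vs G1/S (difference of NP-40 vs SDS log2 ratios) in this document: synchronized HeLa Kyoto cells (double thymidine block for G1/S, nocodazole release for mitosis), protein amounts in NP-40 versus SDS lysates quantified by mass spectrometry, three biological replicates.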
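For solubility in G1/S (NP-40 vs SDS abundance) in this document: HeLa Kyoto cells arrested at G1/S by double thymidine block, proteins quantified by TMT10plex mass spectrometry in mild NP-40 versus SDS extracts, three biological replicates.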
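For thermal stability score vs G1/S (z-score of summed log2 fold changes over temperatures) in this document: synchronized HeLa Kyoto cells, proteins quantified by TMT10plex mass spectrometry, three biological replicates, mitosis taken 0.5 h after nocodazole release, G1/S directly after double thymidine block.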

MSHPSWLPPKSTGEPLGHVPARMETTHSFGNPSISVSTQQPPKKFAPVVAPKPKYNPYKQPGGEGDFLPPPPPPLDDSSALPSISGNFPPPPPLDEEAFKVQGNPGGKTLEERRSSLDAEIDSLTSILADLECSSPYKPRPPQSSTGSTASPPVSTPVTGHKRMVIPNQPPLTATKKSTLKPQPAPQAGPIPVAPIGTLKPQPQPVPASYTTASTSSRPTFNVQVKSAQPSPHYMAAPSSGQIYGSGPQGYNTQPVPVSGQCPPPSTRGGMDYAYIPPPGLQPEPGYGYAPNQGRYYEGYYAAGPGYGGRNDSDPTYGQQGHPNTWKREPGYTPPGAGNQNPPGMYPVTGPKKTYITDPVSAPCAPPLQPKGGHSGQLGPSSVAPSFRPEDELEHLTKKMLYDMENPPADEYFGRCARCGENVVGEGTGCTAMDQVFHVDCFTCIICNNKLRGQPFYAVEKKAYCEPCYINTLEQCNVCSKPIMERILRATGKAYHPHCFTCVMCHRSLDGIPFTVDAGGLIHCIEDFHKKFAPRCSVCKEPIMPAPGQEETVRIVALDRDFHVHCYRCEDCGGLLSEGDNQGCYPLDGHILCKTCNSARIRVLTAKASTDL
solubility change mitosis (log2) (HeLa Kyoto [1]): -0.115 | solubility in G1/S (log2) (HeLa Kyoto [2]): 0.203 | melting temperature (HeLa Kyoto [3]; cell cycle stage: G1/S): 55.6 °C | melting temperature (HeLa Kyoto [3]; cell cycle stage: mitosis): 54.4 °C | thermal stability score (HeLa Kyoto [4]; [5]): -2.33 | thermal stability score (HeLa Kyoto [4]; cell cycle stage: mitosis): -1.52

MASILRSPQALQLTLALIKPDAVAHPLILEAVHQQILSNKFLIVRMRELLWRKEDCQRFYREHEGRFFYQRLVEFMASGPIRAYILAHKDAIQLWRTLMGPTRVFRARHVAPDSIRGSFGLTDTRNTTHGSDSVVSASREIAAFFPDFSEQRWYEEEEPQLRCGPVCYSPEGGVHYVAGTGGLGPA [NME6]
solubility change mitosis (log2) (HeLa Kyoto [1]): 0.636 | solubility in G1/S (log2) (HeLa Kyoto [2]): 0.31 | melting temperature (HeLa Kyoto [3]; cell cycle stage: G1/S): 51.3 °C | melting temperature (HeLa Kyoto [3]; cell cycle stage: mitosis): 55.2 °C | thermal stability score (HeLa Kyoto [4]; [5]): -2.16 | thermal stability score (HeLa Kyoto [4]; cell cycle stage: mitosis): -1.08

MADTLPSEFDVIVIGTGLPESIIAAACSRSGRRVLHVDSRSYYGGNWASFSFSGLLSWLKEYQENSDIVSDSPVWQDQILENEEAIALSRKDKTIQHVEVFCYASQDLHEDVEEAGALQKNHALVTSANSTEAADSAFLPTEDESLSTMSCEMLTEQTPSSDPENALEVNGAEVTGEKENHCDDKTCVPSTSAEDMSENVPIAEDTTEQPKKNRITYSQIIKEGRRFNIDLVSKLLYSRGLLIDLLIKSNVSRYAEFKNITRILAFREGRVEQVPCSRADVFNSKQLTMVEKRMLMKFLTFCMEYEKYPDEYKGYEEITFYEYLKTQKLTPNLQYIVMHSIAMTSETASSTIDGLKATKNFLHCLGRYGNTPFLFPLYGQGELPQCFCRMCAVFGGIYCLRHSVQCLVVDKESRKCKAIIDQFGQRIISEHFLVEDSYFPENMCSRVQYRQISRAVLITDRSVLKTDSDQQISILTVPAEEPGTFAVRVIELCSSTMTCMKGTYLVHLTCTSSKTAREDLESVVQKLFVPYTEMEIENEQVEKPRILWALYFNMRDSSDISRSCYNDLPSNVYVCSGPDCGLGNDNAVKQAETLFQEICPNEDFCPPPPNPEDIILDGDSLQPEASESSAIPEANSETFKESTNLGNLEESSE [CHM]
solubility change mitosis (log2) (HeLa Kyoto [1]): -0.191 | solubility in G1/S (log2) (HeLa Kyoto [2]): -0.115 | melting temperature (HeLa Kyoto [3]; cell cycle stage: G1/S): 52.9 °C | melting temperature (HeLa Kyoto [3]; cell cycle stage: mitosis): 53.1 °C | thermal stability score (HeLa Kyoto [4]; [5]): -0.484 | thermal stability score (HeLa Kyoto [4]; cell cycle stage: mitosis): -1.2

MSASAVYVLDLKGKVLICRNYRGDVDMSEVEHFMPILMEKEEEGMLSPILAHGGVRFMWIKHNNLYLVATSKKNACVSLVFSFLYKVVQVFSEYFKELEEESIRDNFVIIYELLDELMDFGYPQTTDSKILQEYITQEGHKLETGAPRPPATVTNAVSWRSEGIKYRKNEVFLDVIESVNLLVSANGNVLRSEIVGSIKMRVFLSGMPELRLGLNDKVLFDNTGRGKSKSVELEDVKFHQCVRLSRFENDRTISFIPPDGEFELMSYRLNTHVKPLIWIESVIEKHSHSRIEYMIKAKSQFKRRSTANNVEIHIPVPNDADSPKFKTTVGSVKWVPENSEIVWSIKSFPGGKEYLMRAHFGLPSVEAEDKEGKPPISVKFEIPYFTTSGIQVRYLKIIEKSGYQALPWVRYITQNGDYQLRTQ [AP1M1]
solubility change mitosis (log2) (HeLa Kyoto [1]): -0.209 | solubility in G1/S (log2) (HeLa Kyoto [2]): -0.0655 | melting temperature (HeLa Kyoto [3]; cell cycle stage: G1/S): 50.8 °C | melting temperature (HeLa Kyoto [3]; cell cycle stage: mitosis): 50.6 °C | thermal stability score (HeLa Kyoto [4]; [5]): -0.363 | thermal stability score (HeLa Kyoto [4]; cell cycle stage: mitosis): -0.744

MMSDASDMLAAALEQMDGIIAGSKALEYSNGIFDCQSPTSPFMGSLRALHLVEDLRGLLEMMETDEKEGLRCQIPDSTAETLVEWLQSQMTNGHLPGNGDVYQERLARLENDKESLVLQVSVLTDQVEAQGEKIRDLEFCLEEHREKVNATEEMLQQELLSRTSLETQKLDLMAEISNLKLKLTAVEKDRLDYEDKFRDTEGLIQEINDLRLKVSEMDSERLQYEKKLKSTKSLMAKLSSMKIKVGQMQYEKQRMEQKWESLKDELASLKEQLEEKESEVKRLQEKLVCKMKGEGVEIVDRDIEVQKMKKAVESLMAANEEKDRKIEDLRQCLNRYKKMQDTVVLAQGKDGEYEELLNSSSISSLLDAQGFSDLEKSPSPTPVMGSPSCDPFNTSVPEEFHTTILQVSIPSLLPATVSMETSEKSKLTPKPETSFEENDGNIILGATVDTQLCDKLLTSSLQKSSSLGNLKKETSDGEKETIQKTSEDRAPAESRPFGTLPPRPPGQDTSMDDNPFGTRKVRSSFGRGFFKIKSNKRTASAPNLAETEKETAEHLDLAGASSRPKDSQRNSPFQIPPPSPDSKKKSRGIMKLFGKLRRSQSTTFNPDDMSEPEFKRGGTRATAGPRLGWSRDLGQSNSDLDMPFAKWTKEQVCNWLMEQGLGSYLNSGKHWIASGQTLLQASQQDLEKELGIKHSLHRKKLQLALQALGSEEETNHGKLDFNWVTRWLDDIGLPQYKTQFDEGRVDGRMLHYMTVDDLLSLKVVSVLHHLSIKRAIQVLRINNFEPNCLRRRPSDENTIAPSEVQKWTNHRVMEWLRSVDLAEYAPNLRGSGVHGGLMVLEPRFNVETMAQLLNIPPNKTLLRRHLATHFNLLIGAEAQHQKRDAMELPDYVLLTATAKVKPKKLAFSNFGNLRKKKQEDGEEYVCPMELGQASGSASKKGFKPGLDMRLYEEDDLDRLEQMEDSEGTVRQIGAFSEGINNLTHMLKEDDMFKDFAARSPSASITDEDSNV [PPFIBP1]
solubility change mitosis (log2) (HeLa Kyoto [1]): -0.0985 | solubility in G1/S (log2) (HeLa Kyoto [2]): 0.425 | melting temperature (HeLa Kyoto [3]; cell cycle stage: G1/S): 49.4 °C | melting temperature (HeLa Kyoto [3]; cell cycle stage: mitosis): 49 °C | thermal stability score (HeLa Kyoto [4]; [5]): 0.0729 | thermal stability score (HeLa Kyoto [4]; cell cycle stage: mitosis): 0.352

MPPPSDIVKVAIEWPGANAQLLEIDQKRPLASIIKEVCDGWSLPNPEYYTLRYADGPQLYITEQTRSDIKNGTILQLAISPSRAARQLMERTQSSNMETRLDAMKELAKLSADVTFATEFINMDGIIVLTRLVESGTKLLSHYSEMLAFTLTAFLELMDHGIVSWDMVSITFIKQIAGYVSQPMVDVSILQRSLAILESMVLNSQSLYQKIAEEITVGQLISHLQVSNQEIQTYAIALINALFLKAPEDKRQDMANAFAQKHLRSIILNHVIRGNRPIKTEMAHQLYVLQVLTFNLLEERMMTKMDPNDQAQRDIIFELRRIAFDAESDPSNAPGSGTEKRKAMYTKDYKMLGFTNHINPAMDFTQTPPGMLALDNMLYLAKVHQDTYIRIVLENSSREDKHECPFGRSAIELTKMLCEILQVGELPNEGRNDYHPMFFTHDRAFEELFGICIQLLNKTWKEMRATAEDFNKVMQVVREQITRALPSKPNSLDQFKSKLRSLSYSEILRLRQSERMSQDDFQSPPIVELREKIQPEILELIKQQRLNRLCEGSSFRKIGNRRRQERFWYCRLALNHKVLHYGDLDDNPQGEVTFESLQEKIPVADIKAIVTGKDCPHMKEKSALKQNKEVLELAFSILYDPDETLNFIAPNKYEYCIWIDGLSALLGKDMSSELTKSDLDTLLSMEMKLRLLDLENIQIPEAPPPIPKEPSSYDFVYHYG [ELMO2]
solubility change mitosis (log2) (HeLa Kyoto [1]): -0.134 | solubility in G1/S (log2) (HeLa Kyoto [2]): 0.00667 | melting temperature (HeLa Kyoto [3]; cell cycle stage: G1/S): 49.5 °C | melting temperature (HeLa Kyoto [3]; cell cycle stage: mitosis): 49.5 °C | thermal stability score (HeLa Kyoto [4]; [5]): 0.0114 | thermal stability score (HeLa Kyoto [4]; cell cycle stage: mitosis): 0.0809

MAYAYLFKYIIIGDTGVGKSCLLLQFTDKRFQPVHDLTIGVEFGARMITIDGKQIKLQIWDTAGQESFRSITRSYYRGAAGALLVYDITRRDTFNHLTTWLEDARQHSNSNMVIMLIGNKSDLESRREVKKEEGEAFAREHGLIFMETSAKTASNVEEAFINTAKEIYEKIQEGVFDINNEANGIKIGPQHAATNATHAGNQGGQQAGGGCC [RAB2A]
solubility change mitosis (log2) (HeLa Kyoto [1]): -0.118 | solubility in G1/S (log2) (HeLa Kyoto [2]): -0.194 | melting temperature (HeLa Kyoto [3]; cell cycle stage: G1/S): 59.9 °C | melting temperature (HeLa Kyoto [3]; cell cycle stage: mitosis): 61 °C | thermal stability score (HeLa Kyoto [4]; [5]): -2.08 | thermal stability score (HeLa Kyoto [4]; cell cycle stage: mitosis): -3.49
